Experimental data: the supplement of paper PMC7877785
± gives the uncertainty stated by the source.

Experiment: self-splicing fitness, log relative to wild type (ln ratio); higher = more splicing; Tetrahymena group I intron in knt gene, E. coli kanamycin selection, DiMSum; sequences stand for … in CUCUCU…GGAGGGAAAAGUUAUCAGGCAUGCACCUGGUAGCUAGUCUUUAAACCAAUAGAUUGCAUCGGUUUAAAAGGCAAGACCGUCAAAUUGCGGGAAAGGGGUCAACAGCCGUUCAGUACCAAGUCUCAGGGGAAACUUUGAGAUGGCCUUGCAAAGGGUAUGGUAAUAAGCUGACGGACAUGGUCCUAACCACGCAGCCAAGUCCUAAGUCAACAGAUCUUCUGUUGAUAUGGAUGCAGUUCACAGACUAAAUGUCGGUCGGGGAAGAUGUAUUCUUCUCAUAAGAUAUAGUCGGACCUCUCCUUAAUGGGAGCUAGCGGAUGAAGUGAUGCAACACUGGAGCCGCUGGGAACUAAUUUGUAUGCGAAAGUAUAUUGAUUAGUUUUGGAGUACUCGUGGUCG
Procedure, shortened: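 Pooled colonies went to amplicon sequencing on an Illumina HiSeq 2500 after six replicate transformations. The plates were LB agar with 100 μg/mL carbenicillin, 50 μM IPTG and 0.2% rhamnose, with or without 25 μg/mL kanamycin, incubated overnight at 37°C or 30°C. The E. coli BL21(DE3) library had all eight P1ex-region intron nucleotides randomised, the intron placed in the knt kanamycin-resistance gene on pET-22b(+). DiMSum fitness is the error-weighted combination of replicate fold changes, kanamycin against none, normalised to wild type.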

Sequence | self-splicing fitness (ln) (30 °C) | self-splicing fitness (ln) (37 °C)
GCCCAGCAAUAUUACGUGAC | -1.38 ± 0.057 | -0.584 ± 0.069
GCCCAGCAAUAUUACGUUGU | -0.273 ± 0.044 | 0.021 ± 0.056
GCCCAGCAAUAUUACGUUUG | -3.95 ± 0.14 | -1.84 ± 0.14
GCCGAGCAAUAUUACGAAAG | -2.81 ± 0.33 | 
GCCGAGCAAUAUUACGACUG | -2.66 ± 0.23 | -3.53 ± 0.42
GCCGAGCAAUAUUACGCCUC | -2.91 ± 0.42 | -1.88 ± 0.4
GCCGAGCAAUAUUACGCGCU | -1.78 ± 0.2 | -2.77 ± 0.34
GCCGAGCAAUAUUACGCGUC | -0.898 ± 0.14 | -0.0598 ± 0.2
GCCGAGCAAUAUUACGGAAA | -0.987 ± 0.1 | -0.953 ± 0.1
GCCGAGCAAUAUUACGGAUA | -1.68 ± 0.14 | -0.192 ± 0.13
GCCGAGCAAUAUUACGGAUU | -1.37 ± 0.08 | -0.945 ± 0.092
GCCGAGCAAUAUUACGGCGA | -0.848 ± 0.21 | -1.42 ± 0.24
GCCGAGCAAUAUUACGGCGU | -2.55 ± 0.13 | -0.897 ± 0.1
GCCGAGCAAUAUUACGGCUA | -2.04 ± 0.35 | -1.35 ± 0.27
GCCGAGCAAUAUUACGGCUG | -3.31 ± 0.34 | -2.96 ± 0.38
GCCGAGCAAUAUUACGGGAC | -0.849 ± 0.11 | -1.12 ± 0.15
GCCGAGCAAUAUUACGGGCG | -1.18 ± 0.17 | -0.688 ± 0.18
GCCGAGCAAUAUUACGGGGC | -4.27 ± 0.39 | -2.28 ± 0.27
GCCGAGCAAUAUUACGGUCC | -3.18 ± 0.29 | -1.23 ± 0.33
GCCGAGCAAUAUUACGUAUC | -2.66 ± 0.16 | -1.75 ± 0.13
GCCGAGCAAUAUUACGUCCA | -1.27 ± 0.48 | -1.32 ± 0.32
GCCGAGCAAUAUUACGUCCC | -0.316 ± 0.14 | -0.826 ± 0.22
GCCGAGCAAUAUUACGUGAU | -1.01 ± 0.073 | -0.638 ± 0.088
GCCGAGCAAUAUUACGUGGU | -3.39 ± 0.14 | -2.47 ± 0.16
GCCGAGCAAUAUUACGUUAA | -3.34 ± 0.27 | -1.78 ± 0.18

Sequence | self-splicing fitness (ln) (30 °C) | self-splicing fitness (ln) (37 °C)
GCCUAGCAAUAUUACGAAAA | -3.05 ± 0.33 | -1.04 ± 0.26
GCCUAGCAAUAUUACGAACC | -1.07 ± 0.27 | 0.0441 ± 0.29
GCCUAGCAAUAUUACGAAUC | -1.36 ± 0.066 | 0.0359 ± 0.086
GCCUAGCAAUAUUACGAAUG | -2.57 ± 0.18 | -2.43 ± 0.25
GCCUAGCAAUAUUACGACCG | -1.8 ± 0.34 | -0.867 ± 0.39
GCCUAGCAAUAUUACGACGG | -3.6 ± 0.31 | -2.37 ± 0.27
GCCUAGCAAUAUUACGAGGC | -4.1 ± 0.36 | -1.77 ± 0.26
GCCUAGCAAUAUUACGAUCC | -1.08 ± 0.093 | 0.0207 ± 0.13
GCCUAGCAAUAUUACGAUGG | -3.13 ± 0.21 | -2.05 ± 0.21
GCCUAGCAAUAUUACGCCUA |  | -2.79 ± 0.43
GCCUAGCAAUAUUACGCGUA | -1.89 ± 0.13 | -0.683 ± 0.12
GCCUAGCAAUAUUACGCUAU | -0.383 ± 0.11 | -0.105 ± 0.17
GCCUAGCAAUAUUACGCUCA | -1.68 ± 0.16 | -0.0373 ± 0.17
GCCUAGCAAUAUUACGCUCG | -2.7 ± 0.2 | -2.06 ± 0.3
GCCUAGCAAUAUUACGCUGC |  | -1.32 ± 0.21
GCCUAGCAAUAUUACGCUUU | -0.497 ± 0.097 | -0.0274 ± 0.12
GCCUAGCAAUAUUACGGACC | -1.6 ± 0.19 | -1.31 ± 0.28
GCCUAGCAAUAUUACGGACU | -1.01 ± 0.1 | -0.221 ± 0.11
GCCUAGCAAUAUUACGGAUG | -1.84 ± 0.11 | -0.882 ± 0.12
GCCUAGCAAUAUUACGGCAU | -3.27 ± 0.27 | -0.94 ± 0.13
GCCUAGCAAUAUUACGGGUC | -4.6 ± 0.36 | -2.89 ± 0.25
GCCUAGCAAUAUUACGGUAU | -0.978 ± 0.07 | -0.02 ± 0.08
GCCUAGCAAUAUUACGGUCG | -3.36 ± 0.2 | -2.5 ± 0.25
GCCUAGCAAUAUUACGGUCU | -1.12 ± 0.067 | -1.08 ± 0.078
